# B1: cathepsin G (protein)
# chain: IIGGRESRPHSRPYMAYLQIQSPAGQSRCGGFLVREDFVLTAAHCWGSNINVTLGAHNIQRRENTQQHITARRAIRHPQYNQRTIQNDIMLLQLSRRVRRNRNVNPVALPRAQEGLRPGTLCTVAGWGRVSMRRGTDTLREVQLRVQRDRQCLRIFGSYDPRRQICVGDRRERKAAFKGDSGGPLLCNNVAHGIVSYGKSSGVPPEVFTRVSSFLPWIRTTMRS
# B2: human neutrophil elastase (protein)
# chain: IVGGRRARPHAWPFMVSLQLRGGHFCGATLIAPNFVMSAAHCVANVNVRAVRVVLGAHNLSRREPTRQVFAVQRIFENGYDPVNLLNDIVILQLNGSATINANVQVAQLPAQGRRLGNGVQCLAMGWGLLGRNRGIASVLQELNVTVVTSLCRRSNVCTLVRGRQAGVCFGDSGSPLVCNGLIHGIASFVRGGCASGLYPDAFAPVAQFVNWIDSIIQ
# Molecular target: SLPI binding sites on U937 cells (human monocyte cell line; intact cells, PMA-induced cells or plasma membranes) (human)
# Test: competition with 125I-SLPI, U937 plasma membranes, Kd by Cheng-Prusoff
row,Molecule,Kd
1,alpha-1 protease inhibitor (from UniProt P01009 25-418),1 µM

# Molecular target: SLPI binding sites on U937 cells (human monocyte cell line; intact cells, PMA-induced cells or plasma membranes) (human)
# Test: competition with 125I-SLPI, U937 plasma membranes, competitor at 2750 nM
row,Molecule,CPM *SLPI BOUND
1,lysozyme (enzyme),15900 cpm
2,bFGF (from UniProt P09038 143-288) (ligand),14700 cpm

# Molecular target: SLPI binding sites on U937 cells (human monocyte cell line; intact cells, PMA-induced cells or plasma membranes) (human)
# Test: competition with 125I-SLPI, U937 plasma membranes, competitor at 83.9 nM
row,Molecule,CPM *SLPI BOUND
1,lysozyme (enzyme),15500 cpm
2,bFGF (from UniProt P09038 143-288) (ligand),15000 cpm

# Molecular target: SLPI binding sites on U937 cells (human monocyte cell line; intact cells, PMA-induced cells or plasma membranes) (human)
# Test: competition with 125I-SLPI, U937 plasma membranes, competitor at 268 nM
row,Molecule,CPM *SLPI BOUND
1,lysozyme (enzyme),14900 cpm
2,bFGF (from UniProt P09038 143-288) (ligand),14400 cpm

# Molecular target: SLPI binding sites on U937 cells (human monocyte cell line; intact cells, PMA-induced cells or plasma membranes) (human)
# Test: competition with 125I-SLPI, U937 plasma membranes, competitor at 0.800 nM
row,Molecule,CPM *SLPI BOUND
1,lysozyme (enzyme),15200 cpm
2,bFGF (from UniProt P09038 143-288) (ligand),14000 cpm

# Molecular target: SLPI binding sites on U937 cells (human monocyte cell line; intact cells, PMA-induced cells or plasma membranes) (human)
# Test: competition with 125I-SLPI, U937 plasma membranes, competitor at 8.20 nM
row,Molecule,CPM *SLPI BOUND
1,lysozyme (enzyme),15000 cpm
2,bFGF (from UniProt P09038 143-288) (ligand),14500 cpm

# Molecular target: SLPI binding sites on U937 cells (human monocyte cell line; intact cells, PMA-induced cells or plasma membranes) (human)
# Test: competition with 125I-SLPI, U937 plasma membranes, competitor at 0 nM
row,Molecule,CPM *SLPI BOUND
1,lysozyme (enzyme),18700 cpm
2,bFGF (from UniProt P09038 143-288) (ligand),18700 cpm

# Molecular target: HIV-1 envelope protein gp120
# Test: not given
Molecule,proteolytic cleavage of gp120 (Western blot),"proteolytic cleavage of gp120 (Western blot, reducing SDS-PAGE)"
B1,"gp120 (400 nM) was also incubated at 37° for 30 min, with 10 nM cathepsin G and yielded different bands",–
B2,–,"Incubation at 37° for 30 min, with 10 nM HNE yielded primarily 2 bands on Western blot"

# Molecular target: SLPI binding sites on U937 cells (human monocyte cell line; intact cells, PMA-induced cells or plasma membranes) (human)
# Test: competition with 125I-SLPI, U937 plasma membranes, competitor at 2.56 nM
row,Molecule,CPM *SLPI BOUND
1,lysozyme (enzyme),14700 cpm
2,bFGF (from UniProt P09038 143-288) (ligand),13500 cpm
